Publication PMC3496014

Columns and labels:
[1] = target: MBP-PfAtg3 (P. falciparum 3D7) (UniProt C0H519); assay: pull-down
[2] = target: MBP-PfAtg3 (P. falciparum 3D7) (UniProt C0H519); assay: SPR
[3] = target: MBP-PfAtg3 W105A (P. falciparum 3D7) (UniProt C0H519); assay: pull-down

Substance | reduction of binding against wild type [1] | Kd [2] | decrease of binding against wild type [3]
His6-PfAtg8 with deletion of residues 68 to 76 (from UniProt Q8IJK2 1-124) (natural protein) | 80% |  | 
His6-PfAtg8^CM (cysteine mutant C37I, C119S, C122S) (from UniProt Q8IJK2 1-124) (natural protein) |  | 326 nM | 35%
